Patent US20090074722A1, “Products and methods for treating PTP lar diseases” (MAX-PLANCK-GESELLSCHAFT ZUR, priority 1999, published 2009)

Columns and labels:
β-catenin = target: T1, β-catenin (Homo sapiens, UniProt P35222); assay: In vitro binding assay (GST pull-down), β-catenin; details: lysates of pervanadate treated 293 cells overexpressing β-catenin
T1 construct: expressed in transfected cells; host or cells: human embryonic kidney 293 cells, transient, pervanadate-treated, used as lysate; the GST-PTP LARi partner was made in E. coli
T1 sequence (P35222 2-781): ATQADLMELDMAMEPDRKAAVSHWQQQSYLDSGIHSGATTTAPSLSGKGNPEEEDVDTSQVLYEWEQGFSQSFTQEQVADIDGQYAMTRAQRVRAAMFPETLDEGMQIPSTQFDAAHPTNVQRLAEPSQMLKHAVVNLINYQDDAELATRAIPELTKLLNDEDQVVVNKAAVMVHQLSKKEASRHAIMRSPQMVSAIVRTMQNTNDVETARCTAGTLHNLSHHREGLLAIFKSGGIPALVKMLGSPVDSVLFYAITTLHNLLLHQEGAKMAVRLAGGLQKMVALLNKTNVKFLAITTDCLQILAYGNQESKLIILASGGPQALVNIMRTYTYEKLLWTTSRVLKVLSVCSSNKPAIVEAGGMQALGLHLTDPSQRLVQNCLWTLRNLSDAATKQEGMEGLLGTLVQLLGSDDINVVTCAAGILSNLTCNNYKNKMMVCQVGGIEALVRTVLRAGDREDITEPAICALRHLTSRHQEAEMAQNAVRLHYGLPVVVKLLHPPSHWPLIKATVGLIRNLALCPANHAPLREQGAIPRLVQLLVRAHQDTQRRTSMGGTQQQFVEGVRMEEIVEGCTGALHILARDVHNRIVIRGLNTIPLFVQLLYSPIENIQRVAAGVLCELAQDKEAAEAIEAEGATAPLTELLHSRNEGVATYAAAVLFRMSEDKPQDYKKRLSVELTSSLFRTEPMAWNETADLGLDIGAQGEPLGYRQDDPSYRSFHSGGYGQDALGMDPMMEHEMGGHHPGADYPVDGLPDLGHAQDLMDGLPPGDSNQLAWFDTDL
Protocol: (§1) After 24 h of serum starvation, the cells were stimulated with pervanadate for 10 minutes before lysis. Equal amounts of lysats were incubated with the GST-PTP LAR cytoplasmic fusion protein (GST-PTP LARi) or a threefold molar excess of GST. Lysates of control vector transfected 293 cells were incubated with the GST-PTP LAR cytoplasmic fusion protein (GST-PTP LARi). Complexes were immobilized on glutathione-sepharose, and precipitates were separated by SDS-PAGE. Bound proteins were analyzed by Western blotting with an anti-β-catenin antibody (left) or an antibody against plakoglobin (right). Arrows indicate the proteins of interest. Molecular mass standards in kilodaltons are shown on the left. […]
(§2) To investigate the potential association of PTP LAR with the cadherin/catenin-complex in intact cells, subconfluent human MCF7 cells were stimulated with EGF, were lysed, and were immunoprecipitated with antibodies either against PTP LAR or the cadherin/catenin-complex. Western blotting analysis with specific antibodies to β-catenin and E-cadherin (FIG. 5A) or plakoglobin and E-cadherin (FIG. 5B) detected these proteins in anti-human PTP LAR immunoprecipitates with the monoclonal antibody 11.1A against the extracellular domain of human PTP LAR and vice versa. […]

plakoglobin = target: T2, plakoglobin (Homo sapiens, UniProt P14923); assay: In vitro binding assay (GST pull-down), plakoglobin; details: lysates of pervanadate treated 293 cells overexpressing plakoglobin
T2 construct: expressed in transfected cells; host or cells: human embryonic kidney 293 cells, transient, pervanadate-treated, used as lysate; the GST-PTP LARi partner was made in E. coli
T2 sequence (P14923 1-745): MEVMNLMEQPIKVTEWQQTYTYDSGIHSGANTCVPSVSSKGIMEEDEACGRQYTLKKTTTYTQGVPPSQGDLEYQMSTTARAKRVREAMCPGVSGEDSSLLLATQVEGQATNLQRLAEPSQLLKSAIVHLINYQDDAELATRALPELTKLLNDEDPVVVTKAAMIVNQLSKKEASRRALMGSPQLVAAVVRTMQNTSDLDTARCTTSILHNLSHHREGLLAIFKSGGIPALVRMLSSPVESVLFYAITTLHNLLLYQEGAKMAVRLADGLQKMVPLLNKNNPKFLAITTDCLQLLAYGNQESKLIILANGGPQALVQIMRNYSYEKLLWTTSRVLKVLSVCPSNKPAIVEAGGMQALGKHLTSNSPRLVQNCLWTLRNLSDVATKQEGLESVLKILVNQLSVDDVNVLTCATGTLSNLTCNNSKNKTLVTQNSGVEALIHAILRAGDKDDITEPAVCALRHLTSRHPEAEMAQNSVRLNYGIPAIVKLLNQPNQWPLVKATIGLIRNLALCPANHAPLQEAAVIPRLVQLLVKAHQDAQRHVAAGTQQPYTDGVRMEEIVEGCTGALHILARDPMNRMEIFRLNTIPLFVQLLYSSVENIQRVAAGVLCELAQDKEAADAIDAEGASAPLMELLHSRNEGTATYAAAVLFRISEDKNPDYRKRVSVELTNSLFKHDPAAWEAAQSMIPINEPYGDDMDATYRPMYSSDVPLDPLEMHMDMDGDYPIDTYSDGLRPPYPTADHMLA
Protocol: as §1, §2

B1: GST-PTP LAR cytoplasmic: GST fusion protein comprising the entire cytoplasmic domain (amino acids 1259-1881) of human PTP LAR (protein)
chain: PEMLWVTGPVLAVILIILIVIAILLFKRKRTHSPSSKDEQSIGLKDSLLAHSSDPVEMRRLNYQTPGMRDHPPIPITDLADNIERLKANDGLKFSQEYESIDPGQQFTWENSNLEVNKPKNRYANVIAYDHSRVILTSIDGVPGSDYINANYIDGYRKQNAYIATQGPLPETMGDFWRMVWEQRTATVVMMTRLEEKSRVKCDQYWPARGTETCGLIQVTLLDTVELATYTVRTFALHKSGSSEKRELRQFQFMAWPDHGVPEYPTPILAFLRRVKACNPLDAGPMVVHCSAGVGRTGCFIVIDAMLERMKHEKTVDIYGHVTCMRSQRNYMVQTEDQYVFIHEALLEAATCGHTEVPARNLYAHIQKLGQVPPGESVTAMELEFKLLASSKAHTSRFISANLPCNKFKNRLVNIMPYELTRVCLQPIRGVEGSDYINASFLDGYRQQKAYIATQGPLAESTEDFWRMLWEHNSTIIVMLTKLREMGREKCHQYWPAERSARYQYFVVDPMAEYNMPQYILREFKVTDARDGQSRTIRQFQFTDWPEQGVPKTGEGFIDFIGQVHKTKEQFGQDGPITVHCSAGVGRTGVFITLSIVLERMRYEGVVDMFQTVKTLRTQRPAM
Q: What does the source list for B1?
A: association with β-catenin (β-catenin): associate specifically; association with plakoglobin (plakoglobin): associate specifically
